Consider three molecules from paper PMC2581593 (The Journal of Biological Chemistry, 2008).

The experiment concerns the target t-SNARE heterodimer (mouse SNAP-25B and rat syntaxin 1A), reconstituted into vesicles (rat | mouse, UniProt P32851;P60879-1). Briefly: co-flotation.

Chain of t-SNARE heterodimer (mouse SNAP-25B and rat syntaxin 1A), reconstituted into vesicles (P32851 whole entry, chain 1 of 2): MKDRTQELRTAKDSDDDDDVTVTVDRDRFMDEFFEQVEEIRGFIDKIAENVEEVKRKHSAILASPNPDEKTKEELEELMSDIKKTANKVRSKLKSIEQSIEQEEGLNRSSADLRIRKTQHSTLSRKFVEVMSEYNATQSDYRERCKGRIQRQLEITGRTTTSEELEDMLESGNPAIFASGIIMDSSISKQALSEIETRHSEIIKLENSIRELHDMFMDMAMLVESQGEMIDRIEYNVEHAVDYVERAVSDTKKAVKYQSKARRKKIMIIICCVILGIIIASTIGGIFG
Chain of t-SNARE heterodimer (mouse SNAP-25B and rat syntaxin 1A), reconstituted into vesicles (P60879 whole entry, chain 2 of 2): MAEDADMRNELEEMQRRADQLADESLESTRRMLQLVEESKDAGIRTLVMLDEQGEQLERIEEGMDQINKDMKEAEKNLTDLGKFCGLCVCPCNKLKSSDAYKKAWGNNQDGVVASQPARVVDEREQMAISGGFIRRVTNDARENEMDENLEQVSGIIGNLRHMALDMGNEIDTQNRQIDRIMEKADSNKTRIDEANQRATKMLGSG

B1: syt 1 C2AB T328A (domain or fragment)
chain: KGGKNAINMKDVKDLGKTMKDQALKDDDAETGLTDGEEKEEPKEEEKLGKLQYSLDYDFQNNQLLVGIIQAAELPALDMGGTSDPYVKVFLLPDKKKKFETKVHRKTLNPVFNEQFTFKVPYSELGGKTLVMAVYDFDRFSKHDIIGEFKVPMNTVDFGHVTEEWRDLQSAEKEEQEKLGDICFSLRYVPTAGKLTVVILEAKNLKKMDVGGLSDPYVKIHLMQNGKRLKKKKATIKKNTLNPYYNESFSFEVPFEQIQKVQVVVTVLDYDKIGKNDAIGKVFVGYNSTGAELRHWSDMLANPRRPIAQWHTLQVEEEVDAMLAVKK
With B1, the binding result is given as “binds”.

B2: syt 1 C2AB E341A (domain or fragment)
chain: KGGKNAINMKDVKDLGKTMKDQALKDDDAETGLTDGEEKEEPKEEEKLGKLQYSLDYDFQNNQLLVGIIQAAELPALDMGGTSDPYVKVFLLPDKKKKFETKVHRKTLNPVFNEQFTFKVPYSELGGKTLVMAVYDFDRFSKHDIIGEFKVPMNTVDFGHVTEEWRDLQSAEKEEQEKLGDICFSLRYVPTAGKLTVVILEAKNLKKMDVGGLSDPYVKIHLMQNGKRLKKKKTTIKKNTLNPYYNASFSFEVPFEQIQKVQVVVTVLDYDKIGKNDAIGKVFVGYNSTGAELRHWSDMLANPRRPIAQWHTLQVEEEVDAMLAVKK
As for B2, the binding result is on record as “binds”.

B3: syt 1 C2AB K313R/K325R/K327R (domain or fragment)
chain: KGGKNAINMKDVKDLGKTMKDQALKDDDAETGLTDGEEKEEPKEEEKLGKLQYSLDYDFQNNQLLVGIIQAAELPALDMGGTSDPYVKVFLLPDKKKKFETKVHRKTLNPVFNEQFTFKVPYSELGGKTLVMAVYDFDRFSKHDIIGEFKVPMNTVDFGHVTEEWRDLQSAEKEEQEKLGDICFSLRYVPTAGKLTVVILEAKNLKKMDVGGLSDPYVRIHLMQNGKRLKRKRTTIKKNTLNPYYNESFSFEVPFEQIQKVQVVVTVLDYDKIGKNDAIGKVFVGYNSTGAELRHWSDMLANPRRPIAQWHTLQVEEEVDAMLAVKK
With B3, the binding result is listed as “binds”.
